Data set [1] has as its target T1, Endonuclease III (Endo III) (Escherichia coli, UniProt P0AB83 1-211).
T1 sequence: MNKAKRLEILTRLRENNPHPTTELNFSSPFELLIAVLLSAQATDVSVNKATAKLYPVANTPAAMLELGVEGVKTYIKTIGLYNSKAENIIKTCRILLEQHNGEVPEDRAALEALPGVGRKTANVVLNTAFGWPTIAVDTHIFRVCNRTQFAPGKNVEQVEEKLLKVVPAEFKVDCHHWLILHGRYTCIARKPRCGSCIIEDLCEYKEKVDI
The experiment in a line: EMSA. For orientation: A gel shift assay detects complexes by their altered migration in electrophoresis.

Data set [2] addresses T2, XerC;XerD (Vibrio cholerae;Vibrio cholerae, UniProt Q9KVL4;Q9KPE9 1-311;1-302, |).
T2 sequence 1: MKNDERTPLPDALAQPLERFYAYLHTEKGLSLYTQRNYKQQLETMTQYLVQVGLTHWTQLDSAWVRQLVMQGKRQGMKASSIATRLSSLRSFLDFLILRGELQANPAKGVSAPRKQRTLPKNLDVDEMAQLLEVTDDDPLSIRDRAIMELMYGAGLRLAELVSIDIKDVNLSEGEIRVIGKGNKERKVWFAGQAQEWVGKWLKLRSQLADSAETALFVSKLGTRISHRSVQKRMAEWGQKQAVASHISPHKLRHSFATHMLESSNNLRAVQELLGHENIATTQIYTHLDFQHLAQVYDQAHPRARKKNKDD
T2 sequence 2: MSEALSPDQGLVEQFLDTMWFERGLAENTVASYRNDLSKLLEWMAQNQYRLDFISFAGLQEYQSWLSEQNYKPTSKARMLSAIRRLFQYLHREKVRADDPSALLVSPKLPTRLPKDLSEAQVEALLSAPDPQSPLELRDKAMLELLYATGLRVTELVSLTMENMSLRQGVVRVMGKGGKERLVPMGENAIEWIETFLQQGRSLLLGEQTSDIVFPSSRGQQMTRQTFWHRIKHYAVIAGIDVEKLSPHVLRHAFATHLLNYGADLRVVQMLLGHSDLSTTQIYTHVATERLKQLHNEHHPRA
The experiment in a line: footprinting.

Data set [3] addresses T3, Endonuclease III (Endo III);XerC;XerD (Escherichia coli;Vibrio cholerae;Vibrio …, UniProt P0AB83;Q9KVL4;Q9KPE9 1-211;1-311;1-302, ||).
T3 sequence 1: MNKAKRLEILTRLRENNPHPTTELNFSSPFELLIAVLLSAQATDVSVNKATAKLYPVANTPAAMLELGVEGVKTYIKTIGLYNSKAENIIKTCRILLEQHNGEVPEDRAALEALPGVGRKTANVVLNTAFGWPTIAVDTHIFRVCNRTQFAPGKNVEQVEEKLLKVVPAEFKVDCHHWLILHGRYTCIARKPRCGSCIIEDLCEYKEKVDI
T3 sequence 2: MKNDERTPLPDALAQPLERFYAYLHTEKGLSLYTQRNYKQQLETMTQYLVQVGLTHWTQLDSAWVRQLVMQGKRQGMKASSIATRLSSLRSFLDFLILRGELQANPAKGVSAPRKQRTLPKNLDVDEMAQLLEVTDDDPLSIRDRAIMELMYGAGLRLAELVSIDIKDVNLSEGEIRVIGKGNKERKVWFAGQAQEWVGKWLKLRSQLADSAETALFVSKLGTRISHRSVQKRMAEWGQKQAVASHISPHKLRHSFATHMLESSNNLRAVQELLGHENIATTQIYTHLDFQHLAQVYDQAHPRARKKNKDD
T3 sequence 3: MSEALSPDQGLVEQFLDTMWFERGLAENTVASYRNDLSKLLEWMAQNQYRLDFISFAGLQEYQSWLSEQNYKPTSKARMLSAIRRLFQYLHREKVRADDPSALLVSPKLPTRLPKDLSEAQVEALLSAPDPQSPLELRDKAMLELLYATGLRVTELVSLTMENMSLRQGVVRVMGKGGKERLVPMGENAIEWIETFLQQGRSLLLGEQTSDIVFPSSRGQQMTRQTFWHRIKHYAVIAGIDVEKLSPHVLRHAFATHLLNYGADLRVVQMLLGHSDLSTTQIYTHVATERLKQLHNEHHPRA
Kind of data set: footprinting.

The target in data set [4] is T1, Endonuclease III (Endo III). Kind of data set: competition.

B1: attP(+)/dif1 pseudo-HJ (structured_DNA)
DNA 1: GATCCGTGATCACGCTGAACGCGTTTTAGCAGTGCGCATTATGTGGCGCGGCATTATGTTGAGGGGCCTAACGCCTAAAGCGGCCGCCTA
DNA 2: ATCGTAGGCGGCCGCTTTAGGCGTTAGGCCCCGTAACATAATGGCGTATAATACGCATTCGACCGTTGCCGGATCCG
DNA 3: CGATCGGATCCGGCAACGGTCGAGTGCGTATTATGTATGTTATGTTAAATGACATCCTGAGATCTCGA
DNA 4: TCGATCGAGATCTCAGGATGTCATTTAACATAACATACATAATGCGCACTGCTAAAACGCGTTCAGCGTGATCACG
For B1, the binding result in data set [1], in data set [2] and in data set [3] was “binds” each time.

B2: dif1/dif1 HJ (structured_DNA)
DNA 1: GATCCGTGATCACGCTGAACGCGTTTTAGCAGTGCGCATTATGTATGTTATGTTAAATGGCCTAACGCCTAAAGCGGCCGCCTA
DNA 2: ATCGTAGGCGGCCGCTTTAGGCGTTAGGCCATTTAACATAACATACATAATGCGCACTCGACCGTTGCCGGATCCG
DNA 3: CGATCGGATCCGGCAACGGTCGAGTGCGCATTATGTATGTTATGTTAAATGACATCCTGAGATCTCGA
DNA 4: TCGATCGAGATCTCAGGATGTCATTTAACATAACATACATAATGCGCACTGCTAAAACGCGTTCAGCGTGATCACG
For the molecule B2, the binding result in data set [4] is listed as “binds”.

Values taken from PMC3442271.
